The results in this text go back to patent US20250257357.

In series [1] the target is C-terminal SNAP-tagged H3.3 G34R (UniProt P84243).
Series [2] concerns the target C-terminal SNAP-tagged H3.3 K27M (UniProt P84243).

Regarding “Polynucleotide Kinase 3′-Phosphatase (PNKP)”, the “NHEJ activity by random plasmid integration assay upon knockdown of PNKP” value in series [1] is “it does reduce NHEJ in H3.3K27M and G34R cells”; in series [2], “it does reduce NHEJ in H3.3K27M and G34R cells”.
